17 substances from the supplement of paper PMC5998384 can be followed below.

For the data set, the system named is HeLa Kyoto. The data set can be described thus: melting temperature (median over replicates), in situ; higher = more thermally stable.
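Also: HeLa Kyoto cells synchronized by double thymidine or nocodazole block, proteins quantified by TMT10plex mass spectrometry, three independent biological replicates.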

Chain of DESI2 (chain, as listed by the source): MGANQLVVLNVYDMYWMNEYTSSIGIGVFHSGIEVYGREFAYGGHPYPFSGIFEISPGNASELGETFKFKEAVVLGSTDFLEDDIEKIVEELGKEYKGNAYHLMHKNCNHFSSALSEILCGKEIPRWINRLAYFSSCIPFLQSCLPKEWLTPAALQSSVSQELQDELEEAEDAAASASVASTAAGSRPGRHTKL
Chain of MGST2 (chain, as listed by the source): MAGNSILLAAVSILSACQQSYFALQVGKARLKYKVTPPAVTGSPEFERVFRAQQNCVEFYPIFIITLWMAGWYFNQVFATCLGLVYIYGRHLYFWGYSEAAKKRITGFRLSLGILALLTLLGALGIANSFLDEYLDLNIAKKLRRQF

DESI2 registered a melting temperature (cell cycle stage: G1/S) of 53.8 °C.

With “MAAAAAGAGSGPWAAQEKQFPPALLSFFIYNPRFGPREGQEENKILFYHPNEVEKNEKIRNVGLCEAIVQFTRTFSPSKPAKSLHTQKNRQFFNEPEENFWMVMVVRNPIIEKQSKDGKPVIEYQEEELLDKVYSSVLRQCYSMYKLFNGTFLKAMEDGGVKLLKERLEKFFHRYLQTLHLQSCDLLDIFGGISFFPLDKMTYLKIQSFINRMEESLNIVKYTAFLYNDQLIWSGLEQDDMRILYKYLTTSLFPRHIEPELAGRDSPIRAEMPGNLQHYGRFLTGPLNLNDPDAKCRFPKIFVNTDDTYEELHLIVYKAMSAAVCFMIDASVHPTLDFCRRLDSIVGPQLTVLASDICEQFNINKRMSGSEKEPQFKFIYFNHMNLAEKSTVHMRKTPSVSLTSVHPDLMKILGDINSDFTRVDEDEEIIVKAMSDYWVVGKKSDRRELYVILNQKNANLIEVNEEVKKLCATQFNNIFFLD [CCZ1B]”, the melting temperature came to 50.9 °C (cell cycle stage: G1/S) and 51.8 °C (cell cycle stage: mitosis).

Substance “MAAHRKHVFVEKVLQRLFPPVPSGQGKREPQTLAVQNPPKKVTSEKVSQKHAEPLTDTGSETPTARRLYTASGPPEGYVPCWPEPSSCGSPENASSGDDTEDQDPHDQPKRRRIRKHKSKKKFKNPNNVLIEQAELEKQQSLLQEKSQRQHTDGTTISKNKKRKLKKKQQIKRKKAAGLAAKAAGVSFMYQPEDSSNEGEGVGEACEEDGVDTSEEDPTLAGEEDVKDTREEDGADASEEDLTRARQEEGADASEEDPTPAGEEDVKDAREEDGVDTIEEDLTRAGEEDGKDTREEDGADASEEDPTWAGEEEGADSGEEDGADASEEDDTITNEKAHSILNFLKSTQEMYFYDGVSRDAASAALADAAEELLDRLASHSMLPSDVSILYHMKTLLLLQDTERLKHALEMFPEHCTMPPDHARVISAFFSYWITHILPEKSSD [ERICH1]” returned a melting temperature (cell cycle stage: mitosis) of 52.6 °C.

Take “MAEAEESPGDPGTASPRPLFAGLSDISISQDIPVEGEITIPMRSRIREFDSSTLNESVRNTIMRDLKAVGKKFMHVLYPRKSNTLLRDWDLWGPLILCVTLALMLQRDSADSEKDGGPQFAEVFVIVWFGAVTITLNSKLLGGNISFFQSLCVLGYCILPLTVAMLICRLVLLADPGPVNFMVRLFVVIVMFAWSIVASTAFLADSQPPNRRALAVYPVFLFYFVISWMILTFTPQ [YIPF6]”: the melting temperature (cell cycle stage: G1/S) is 55 °C and the melting temperature (cell cycle stage: mitosis) was determined as 54.6 °C.

Take “MAGAGSAAVSGAGTPVAGPTGRDLFAEGLLEFLRPAVQQLDSHVHAVRESQVELREQIDNLATELCRINEDQKVALDLDPYVKKLLNARRRVVLVNNILQNAQERLRRLNHSVAKETARRRAMLDSGIYPPGSPGK [SNAPIN]”: the melting temperature is, setting by setting: (cell cycle stage: G1/S) 53 °C; (cell cycle stage: mitosis) 54.5 °C.

The substance “MAGLEVLFASAAPAITCRQDALVCFLHWEVVTHGYFGLGVGDQPGPNDKKSELLPAGWNNNKDLYVLRYEYKDGSRKLLVKAITVESSMILNVLEYGSQQVADLTLNLDDYIDAEHLGDFHRTYKNSEELRSRIVSGIITPIHEQWEKANVSSPHREFPPATAREVDPLRIPPHHPHTSRQPPWCDPLGPFVVGGEDLDPFGPRRGGMIVDPLRSGFPRALIDPSSGLPNRLPPGAVPPGARFDPFGPIGTSPPGPNPDHLPPPGYDDMYL [PSMF1]” came in with a melting temperature (cell cycle stage: mitosis) of 53 °C.

Substance “MAPRALPGSAVLAAAVFVGGAVSSPLVAPDNGSSRTLHSRTETTPSPSNDTGNGHPEYIAYALVPVFFIMGLFGVLICHLLKKKGYRCTTEAEQDIEEEKVEKIELNDSVNENSDTVGQIVHYIMKNEANADVLKAMVADNSLYDPESPVTPSTPGSPPVSPGPLSPGGTPGKHVCGHHLHTVGGVVERDVCHRCRHKRWHFIKPTNKSRESRPRRQGEVTVLSVGRFRVTKVEHKSNQKERRSLMSVSGAETVNGEVPATPVKRERSGTE [RELL1]” had a melting temperature (cell cycle stage: G1/S) of 54.7 °C.

In the case of “MAQEVDTAQGAEMRRGAGAARGRASWCWALALLWLAVVPGWSRVSGIPSRRHWPVPYKRFDFRPKPDPYCQAKYTFCPTGSPIPVMEGDDDIEVFRLQAPVWEFKYGDLLGHLKIMHDAIGFRSTLTGKNYTMEWYELFQLGNCTFPHLRPEMDAPFWCNQGAACFFEGIDDVHWKENGTLVQVATISGNMFNQMAKWVKQDNETGIYYETWNVKASPEKGAETWFDSYDCSKFVLRTFNKLAEFGAEFKNIETNYTRIFLYSGEPTYLGNETSVFGPTGNKTLGLAIKRFYYPFKPHLPTKEFLLSLLQIFDAVIVHKQFYLFYNFEYWFLPMKFPFIKITYEEIPLPIRNKTLSGL [CLN5]”, for the setting “cell cycle stage: mitosis”, the melting temperature was determined as 53.8 °C.

Substance “MASGGGGGNTGAGGGPGMGLSLGLGLGLSLGMSEATSEAEEEAATAEAVGRLATTLWLRLRGWEAVLAAAQRLLVWEKPLHSLVTAAALNGLFWLLSSSSLRPFFLLSVSLLAYFLLDLWQPRFLPDVSASSPEEPHSDSEGAGSGARPHLLSVPELCRYLAESWLTFQIHLQELLQYKRQNPAQFCVRVCSGCAVLAVLGHYVPGIMISYIVLLSILLWPLVVYHELIQRMYTRLEPLLMQLDYSMKAEANALHHKHDKRKRQGKNAPPGGDEPLAETESESEAELAGFSPVVDVKKTALALAITDSELSDEEASILESGGFSVSRATTPQLTDVSEDLDQQSLPSEPEETLSRDLGEGEEGELAPPEDLLGRPQALSRQALDSEEEEEDVAAKETLLRLSSPLHFVNTHFNGAGSPPDGVKCSPGGPVETLSPETVSGGLTALPGTLSPPLCLVGSDPAPSPSILPPVPQDSPQPLPAPEEEEALTTEDFELLDQGELEQLNAELGLEPETPPKPPDAPPLGPDIHSLVQSDQEAQAVAEP [FAM134A]” registered a melting temperature (cell cycle stage: mitosis) of 55.2 °C.

As for “MASLKCSTVVCVICLEKPKYRCPACRVPYCSVVCFRKHKEQCNPETRPVEKKIRSALPTKTVKPVENKDDDDSIADFLNSDEEEDRVSLQNLKNLGESATLRSLLLNPHLRQLMVNLDQGEDKAKLMRAYMQEPLFVEFADCCLGIVEPSQNEES [ZNHIT3]”, the melting temperature is, setting by setting: (cell cycle stage: G1/S) 50.4 °C; (cell cycle stage: mitosis) 52.7 °C.

As for “MATQAKRPRVAGPVDGGDLDPVACFLSWCRRVGLELSPKVSERAGGRRTRGGARAALTSPPAQVAVSRQGTVAGYGMVARESVQAGELLFVVPRAALLSQHTCSIGGLLERERVALQSQSGWVPLLLALLHELQAPASRWRPYFALWPELGRLEHPMFWPEEERRCLLQGTGVPEAVEKDLANIRSEYQSIVLPFMEAHPDLFSLRVRSLELYHQLVALVMAYSFQEPLEEEEDEKEPNSPVMVPAADILNHLANHNANLEYSANCLRMVATQPIPKGHEIFNTYGQMANWQLIHMYGFVEPYPDNTDDTADIQMVTVREAALQGTKTEAERHLVYERWDFLCKLEMVGEEGAFVIGREEVLTEEELTTTLKVLCMPAEEFRELKDQDGGGDDKREEGSLTITNIPKLKASWRQLLQNSVLLTLQTYATDLKTDQGLLSNKEVYAKLSWREQQALQVRYGQKMILHQLLELTS [SETD6]”, where the note is “cell cycle stage: mitosis”, the melting temperature was found to be 50.4 °C.

Consider “MEADGDGEELARLRSVFAACDANRSGRLEREEFRALCTELRVRPADAEAVFQRLDADRDGAITFQEFARGFLGSLRGGRRRDWGPLDPAPAVSEAGPETHDSEEDEGDEDAAAALATSCGPASPGRAWQDFQARLGDEAKFIPREEQVSTLYQNINLVEPRLIQPYEHVIKNFIREIRLQSTEMENLAIAVKRAQDKAAMQLSELEEEMDQRIQAAEHKTRKDEKRKAEEALSDLRRQYETEVGDLQVTIKKLRKLEEQSKRVSQKEDVAALKKQIYDLSMENQKVKKDLLEAQTNIAFLQSELDALKSDYADQSLNTERDLEIIRAYTEDRNSLERQIEILQTANRKLHDSNDGLRSALENSYSKFNRSLHINNISPGNTISRSSPKFIGHSPQPLGYDRSSRSSYVDEDCDSLALCDPLQRTNCEVDSLPESCFDSGLSTLRDPNEYDSEVEYKHQRGFQRSHGVQESFGGDASDTDVPDIRDEETFGLEDVASVLDWKPQGSVSEGSIVSSSRKPISALSPQTDLVDDNAKSFSSQKAYKIVLAGDAAVGKSSFLMRLCKNEFRENISATLGVDFQMKTLIVDGERTVLQLWDTAGQERFRSIAKSYFRKADGVLLLYDVTCEKSFLNIREWVDMIEDAAHETVPIMLVGNKADIRDTAATEGQKCVPGHFGEKLAMTYGALFCETSAKDGSNIVEAVLHLAREVKKRTDKDDSRSITNLTGTNSKKSPQMKNCCNG [RASEF]”, for which the melting temperature (cell cycle stage: G1/S) was 49.8 °C and the melting temperature (cell cycle stage: mitosis) is 50 °C.

In the case of “MELIQDTSRPPLEYVKGVPLIKYFAEALGPLQSFQARPDDLLINTYPKSGTTWVSQILDMIYQGGDLEKCNRAPIYVRVPFLEVNDPGEPSGLETLKDTPPPRLIKSHLPLALLPQTLLDQKVKVVYVARNPKDVAVSYYHFHRMEKAHPEPGTWDSFLEKFMAGEVSYGSWYQHVQEWWELSRTHPVLYLFYEDMKENPKREIQKILEFVGRSLPEETMDFMVQHTSFKEMKKNPMTNYTTVPQELMDHSISPFMRKGMAGDWKTTFTVAQNERFDADYAEKMAGCSLSFRSEL [SULT1A4]”, the melting temperature by setting is: (cell cycle stage: G1/S) 48.5 °C; (cell cycle stage: mitosis) 49.2 °C.

Substance “MFAKGKGSAVPSDGQAREKLALYVYEYLLHVGAQKSAQTFLSEIRWEKNITLGEPPGFLHSWWCVFWDLYCAAPERRDTCEHSSEAKAFHDYSAAAAPSPVLGNIPPNDGMPGGPIPPGFFQGPPGSQPSPHAQPPPHNPSSMMGPHSQPFMSPRYAGGPRPPIRMGNQPPGGVPGTQPLLPNSMDPTRQQGHPNMGGSMQRMNPPRGMGPMGPGPQNYGSGMRPPPNSLGPAMPGINMGPGAGRPWPNPNSANSIPYSSSSPGTYVGPPGGGGPPGTPIMPSPADSTNSSDNIYTMINPVPPGGSRSNFPMGPGSDGPMGGMGGMEPHHMNGSLGSGDIDGLPKNSPNNISGISNPPGTPRDDGELGGNFLHSFQNDNYSPSMTMSV [SSBP3]” yielded a melting temperature (cell cycle stage: G1/S) of 52.4 °C.

For “MGDEKDSWKVKTLDEILQEKKRRKEQEEKAEIKRLKNSDDRDSKRDSLEEGELRDHRMEITIRNSPYRREDSMEDRGEEDDSLAIKPPQQMSRKEKAHHRKDEKRKEKRRHRSHSAEGGKHARVKEKEREHERRKRHREEQDKARREWERQKRREMAREHSRRERDRLEQLERKRERERKMREQQKEQREQKERERRAEERRKEREARREVSAHHRTMREDYSDKVKASHWSRSPPRPPRERFELGDGRKPGEARPAPAQKPAQLKEEKMEERDLLSDLQDISDSERKTSSAESSSAESGSGSEEEEEEEEEEEEEGSTSEESEEEEEEEEEEEEETGSNSEEASEQSAEEVSEEEMSEDEERENENHLLVVPESRFDRDSGESEEAEEEVGEGTPQSSALTEGDYVPDSPALSPIELKQELPKYLPALQGCRSVEEFQCLNRIEEGTYGVVYRAKDKKTDEIVALKRLKMEKEKEGFPITSLREINTILKAQHPNIVTVREIVVGSNMDKIYIVMNYVEHDLKSLMETMKQPFLPGEVKTLMIQLLRGVKHLHDNWILHRDLKTSNLLLSHAGILKVGDFGLAREYGSPLKAYTPVVVTLWYRAPELLLGAKEYSTAVDMWSVGCIFGELLTQKPLFPGKSEIDQINKVFKDLGTPSEKIWPGYSELPAVKKMTFSEHPYNNLRKRFGALLSDQGFDLMNKFLTYFPGRRISAEDGLKHEYFRETPLPIDPSMFPTWPAKSEQQRVKRGTSPRPPEGGLGYSQLGDDDLKETGFHLTTTNQGASAAGPGFSLKF [CDK11B]”, the melting temperature stood at 46.5 °C (cell cycle stage: G1/S) and 50.3 °C (cell cycle stage: mitosis).

For “MGLELFLDLVSQPSRAVYIFAKKNGIPLELRTVDLVKGQHKSKEFLQINSLGKLPTLKDGDFILTESSAILIYLSCKYQTPDHWYPSDLQARARVHEYLGWHADCIRGTFGIPLWVQVLGPLIGVQVPKEKVERNRTAMDQALQWLEDKFLGDRPFLAGQQVTLADLMALEELMQPVALGYELFEGRPRLAAWRGRVEAFLGAELCQEAHSIILSILEQAAKKTLPTPSPEAYQAMLLRIARIP [GSTT2]”, the melting temperature was 54.9 °C (cell cycle stage: G1/S) and 55.1 °C (cell cycle stage: mitosis).

In the case of MGST2, the melting temperature (cell cycle stage: G1/S) turned out to be 54.3 °C.
